Experimental data taken from patent US20110250165A1 (Dana-Farber, published 2011).

B1: 33-IgG1 (antibody, V domains shown)
VH: QVTLKESGGGVVQPGRSLRLSCAASGFTFTNYGLHWVRQAPGKGLEWVAVISHDGTKKYYADSVKGRFTISRDSSENTLYLQMNSLRPEDSALYYCARDGGYCSGGRCYSYGMDVWGQGTTVTVSS
VL: QSVLTQPPSASGTPGQRVTISCSGSRSNIGSNTVNWYQQLPGTAPKLLIYTNNQRPSGVPDRFSGSKSGTSASLAITGLQAEDEADYYCLSFDSSLTSYVFGTGTKVTVLG
notes: Bivalent whole human IgG1, VH and VL subcloned into human IgG1 lambda light chain expression vector TCAE6; also called mAb 33
B2: 18-Fc (Fc fusion)
VH: QVQLVQSGAEVKKPGASVKVSCKASGYTFTSYGISWVRQAPGQGLEWMGWISAYNGNTNYAQKLQGRVTMTTDTSTSTAYMELRSLRSDDTAVYYCARDTPGIAARRYYYYGMDVWGQGTTVTVSS
VL: SSELTQDPAVSVALGQTVRITCQGDSLRKFFASWYQQKPGQAPVLVIYGKNSRPSGIPDRFSGSNSRNTASLTITGAQAEDEGDYYCNSRDSRDNHQVFGAGTKVTVL
notes: scFv-Fc fusion; also called X18; scFv-Fc 18
B3: 48-IgG1 (antibody, V domains shown)
VH: QVQLVQSGGGVVLPGRSLRLSCVASGFTFRRYGMHWVRQAPGKGLEWVSLISYDGSKTFYGESVKGRFTISRDNSKNTLYLQMNSLRAEDTAVYYCARATVTTDGYYYMDVWGKGTTVTVSS
VL: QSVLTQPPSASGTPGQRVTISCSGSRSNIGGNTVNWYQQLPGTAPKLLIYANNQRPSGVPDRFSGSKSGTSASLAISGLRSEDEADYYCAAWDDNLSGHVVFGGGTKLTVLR
notes: Bivalent whole human IgG1, VH and VL subcloned into human IgG1 lambda light chain expression vector TCAE6; also called mAb 48
B4: 19-Fc (Fc fusion)
VH: QVQLVQSGGGVVQPGRSLRLSCAASGFTFSSYPMHWVRQAPGKGLEWMTVISSDGRNKYYPDSVKGRFTISRDNSKNTLYLQMNSLRPEDTAVYYCARGGYHDFWSGPDYWGQGTLVTVSS
VL: EIVLTQSPATLSVSPGERATLSCRASQSVNTNLAWYQQKPGQAPRLLIYGASSRATGIPDRFSGSGSGTDFTLTISRLEPEDFAVYYCQHYGSSPLTFGGGTKLEIK
notes: scFv-Fc fusion; also called X19; scFv-Fc 19

Assays:
human CXCR4 (wild type) [1] = biological target: T1, human CXCR4 (wild type) (human, UniProt P61073 1-352); experiment: FACS on 293T cells expressing CXCR4 variants
T1 construct: whole, on cells; also called wtCXCR4

2442 CXCR2/CXCR4 chimera [2] = experiment: FACS on 293T cells expressing CXCR4 variants
[3] = biological target: T2, 2444b CXCR2/CXCR4 chimera (human, UniProt P25025 1-48; P61073 39-352, limits assumed); experiment: FACS on 293T cells expressing CXCR4 variants
4442 CXCR2/CXCR4 chimera [4] = experiment: FACS on 293T cells expressing CXCR4 variants
2242 CXCR2/CXCR4 chimera = experiment: flow cytometry, scFv-Fc on transfected 293T cells, FITC anti-human IgG
Description: (§1) Epitope mapping experiments were performed to determine the binding sites for the anti-CXCR4 antibodies of the invention. (See Example 5. infra). […] Analysis was performed using a flow cytometer. Binding activity was measured by MFI on total cells gated. The following formula was used to calculate the reactivity:reactivity to each clone=(MFI of chimeric receptor/MFI of wild type CXCR4)×100%.
(§2) Thirty six hours after transfection, the cells were harvested. […] The cells were then washed two times with 0.5% BSA/PBS/0.02% NaN3.
(§3) Next, FITC-labeled secondary antibodies were added to the cells and were allowed to incubate at 4° C. for 30 minutes. The cells were then washed again two times with 0.5% BSA/PBS/0.02% NaN3. Following the second wash, FACS analysis was performed.

mouse CXCR4 = biological target: T3, mouse CXCR4 (mouse, UniProt P70658 1-359); experiment: as above
T3 construct: whole, on cells; also called mice CXCR4
Description: as §1, §2, §3

human CXCR4 (wild type) [5] = biological target: T1, human CXCR4 (wild type); experiment: as above
Description: as §1, §2, §3

CXCR2 = biological target: T4, CXCR2 (UniProt P25025 1-360, limits assumed); experiment: as above
T4 construct: whole, on cells; also called 2222
T4 sequence (looked up): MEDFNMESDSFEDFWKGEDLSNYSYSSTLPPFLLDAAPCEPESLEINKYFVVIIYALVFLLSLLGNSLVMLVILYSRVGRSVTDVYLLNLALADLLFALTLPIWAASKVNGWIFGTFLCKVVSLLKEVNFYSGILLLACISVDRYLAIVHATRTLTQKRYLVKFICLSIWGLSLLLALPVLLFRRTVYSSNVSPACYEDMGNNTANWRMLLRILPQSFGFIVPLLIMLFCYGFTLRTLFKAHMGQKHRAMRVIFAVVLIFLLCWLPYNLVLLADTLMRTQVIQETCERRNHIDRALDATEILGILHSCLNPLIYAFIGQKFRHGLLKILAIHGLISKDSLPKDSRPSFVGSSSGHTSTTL
Description: as §1, §2, §3

Δ-X4 = experiment: as above
Description: as §1, §2, §3

2442 CXCR2/CXCR4 chimera [6] = experiment: as above
Description: as §1, §2, §3

[7] = biological target: T2, 2444b CXCR2/CXCR4 chimera; experiment: as above
Description: as §1, §2, §3

[8] = biological target: T5, rhesus macaque monkey CXCR4 (rhesus macaque, UniProt P79394 1-352); experiment: as above
T5 construct: whole, on cells
Description: as §1, §2, §3

4442 CXCR2/CXCR4 chimera [9] = experiment: as above
Description: as §1, §2, §3

T1 sequence (P61073 whole entry): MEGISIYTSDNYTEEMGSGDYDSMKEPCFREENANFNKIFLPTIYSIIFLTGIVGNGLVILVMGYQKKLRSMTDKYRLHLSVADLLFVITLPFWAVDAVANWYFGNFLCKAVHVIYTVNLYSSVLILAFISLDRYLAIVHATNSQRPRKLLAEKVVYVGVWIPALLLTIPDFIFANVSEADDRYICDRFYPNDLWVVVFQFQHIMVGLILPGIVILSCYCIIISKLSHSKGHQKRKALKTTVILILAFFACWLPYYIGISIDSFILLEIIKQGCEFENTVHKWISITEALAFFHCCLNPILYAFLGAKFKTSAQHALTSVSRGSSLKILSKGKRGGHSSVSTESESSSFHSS
T3 sequence (P70658 whole entry): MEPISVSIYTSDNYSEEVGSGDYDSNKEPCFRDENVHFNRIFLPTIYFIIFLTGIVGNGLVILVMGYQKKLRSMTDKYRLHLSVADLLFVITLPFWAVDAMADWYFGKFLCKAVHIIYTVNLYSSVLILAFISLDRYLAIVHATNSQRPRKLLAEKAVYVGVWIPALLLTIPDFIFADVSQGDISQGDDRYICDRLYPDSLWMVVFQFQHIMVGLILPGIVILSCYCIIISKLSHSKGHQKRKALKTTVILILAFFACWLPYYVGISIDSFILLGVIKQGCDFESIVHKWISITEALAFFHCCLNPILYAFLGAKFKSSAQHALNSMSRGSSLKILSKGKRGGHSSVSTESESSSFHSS
T5 sequence (P79394 whole entry): as the sequence (P61073 whole entry) above, with M24I, N35H, K38R, R146K, N176S, V214D counted along it

Row | Binder | binding (+%) (human CXCR4 (wild type) [1]) | binding (+%) (2442 CXCR2/CXCR4 chimera [2]) | binding (+%) [3] | binding (+%) (4442 CXCR2/CXCR4 chimera [4]) | reactivity (MFI of chimeric receptor/MFI of wild type CXCR4 x 100%) (2242 CXCR2/CXCR4 chimera) | reactivity (MFI of chimeric receptor/MFI of wild type CXCR4 x 100%) (mouse CXCR4) | reactivity (MFI of chimeric receptor/MFI of wild type CXCR4 x 100%) (human CXCR4 (wild type) [5]) | reactivity (MFI of chimeric receptor/MFI of wild type CXCR4 x 100%) (CXCR2) | reactivity (MFI of chimeric receptor/MFI of wild type CXCR4 x 100%) (Δ-X4) | reactivity (MFI of chimeric receptor/MFI of wild type CXCR4 x 100%) (2442 CXCR2/CXCR4 chimera [6]) | reactivity (MFI of chimeric receptor/MFI of wild type CXCR4 x 100%) [7] | reactivity (MFI of chimeric receptor/MFI of wild type CXCR4 x 100%) [8] | reactivity (MFI of chimeric receptor/MFI of wild type CXCR4 x 100%) (4442 CXCR2/CXCR4 chimera [9])
1 | B1 | 100% | 1.5% | 1% | 99.5% | – | – | – | – | – | – | – | – | –
2 | B2 | – | – | – | – | 10.1% | 13.1% | 100% | 2% | 48.1% | 37.8% | 28.5% | 89.1% | 35.2%
3 | B3 | 100% | -2.9% | -2.3% | 91.9% | – | – | – | – | – | – | – | – | –
4 | B4 | – | – | – | – | 5.2% | 5.6% | 100% | 7.5% | 11% | 7.1% | 8.5% | 35.1% | 5.3%
